From paper PMC3289617, “Biochemical, Mutational and In Silico Structural Evidence for a Functional Dimeric Form of the Ornithine Decarboxylase from Entamoeba histolytica” (PLoS Neglected Tropical Diseases, 2012)

Legend:
[1] = target: EhODC Cys334Ala mutant (Entamoeba histolytica); assay: SEC; gel filtration of the active-site mutants, data not shown
[2] = target: EhODC Cys334Ala mutant (Entamoeba histolytica)
[3] = target: EhODC Lys57Ala mutant (Entamoeba histolytica); assay: SEC; gel filtration of the active-site mutants, data not shown
[4] = target: EhODC Lys157Ala mutant (Entamoeba histolytica); assay: SEC; HiLoad 16/60 Superdex 200, buffer B (50 mM Tris-HCl pH 7.5, 250 mM NaCl, 0.2 mM DTT, 5% glycerol), 500 µl of ~10 mg/ml protein, 0.5 ml/min, calibrated with HMW standards; the wild type was also run after 4 h at 4°C with 2 M or 4 M NaCl or urea (partial dissociation to monomer)
[5] = target: EhODC Gly361Tyr mutant (Entamoeba histolytica); assay: as above
[6] = target: the molecule itself; assay: cross-linking; glutaraldehyde vapour (12.5%, acidified) over a hanging drop of 15 µl protein at 1 mg/ml in 20 mM sodium phosphate pH 7.5, 37°C, 10 min; 12% SDS-PAGE, Coomassie

EhODC Cys334Ala mutant (enzyme) was tested. Which stoichiometry N [1] did it give?
The stoichiometry N was 2.

What does the source list for EhODC Lys57Ala mutant (enzyme)?
ornithine decarboxylase activity (colorimetric DAO/HRP assay) of the two inactive mutants mixed in equal concentration (1:1), relative to wild type; each mutant alone ~2% (% of wild-type activity) [2]: 29; stoichiometry N [3]: 2

With EhODC Lys157Ala mutant (enzyme) as the molecule, how does the stoichiometry N [4] read?
Its stoichiometry N is 2.

Which stoichiometry N [5] does the source give for EhODC Gly361Tyr mutant (enzyme) here?
Its stoichiometry N is 2.

B1: Ornithine decarboxylase from Entamoeba histolytica (EhODC), wild type (enzyme, UniProt Q58P26 1-413, looked up)
chain: MKQTSLEVKEFALNLISQFEPENQPLGFWIFDTEGVEKAVERWKKNMPTVRPCFAVKCNPEPHLVKLLGELGCGFDCASLNEIKEVLDLGFNPEDITYSQTFKPYNQLIEASHLGINHTIVDSIDEVQKIAKYAPKMGIMIRIMENDTSAGHVFGEKFGLHDDEVEIVLKEIKDKGLNLDGVHFHVGSDSHNSEVFTKALTKARNTVTLAEQFGMKPYLIDIGGGFSQVAPFEEFAATIEKTIKELEFPERTRFIAEPGRYMASNAFHLVSSLHGKRVRIQNGKKQIEYTSGDGLHGSFGCCIWFEKQKSCECITQKVNENTKMYESIIYGPSCNGSDKVATQELPEMEPGKDWLLFPNMGAYTISMATNFNGFEERNHVIYTLPLKSTKIIQIPKSIECNSVPSLNGIPHYA
notes: Ornithine decarboxylase, Entamoeba histolytica, NCBI AAX35675, 413 amino acids, predicted 46.43 kDa; full-length gene in pET30a; The His tag is followed by an enterokinase site and was removed before gel filtration; PLP is the cofactor; also called E. histolytica ODC; source: E. coli BL21 (DE3), purified (HisTrap HP, enterokinase cleavage, second HisTrap, Superdex 200); not shown: His6, …
How did the “stoichiometry N” value [6] turn out when B1 was run?
The value was 2.
